Measured values taken from US20230135471A1, “UBIQUITIN VARIANTS WITH IMPROVED AFFINITY FOR 53BP1” (Integrated DNA Technologies, Inc., priority 2021, published 2023).

Experiments:
[1] = molecular target: T1, fragment of 53BP1 (a.a. 1221-1718) (Homo sapiens, UniProt Q12888); assay: Individual two-hybrid screen of amino acid changes, percent GFP (reporter) positive cells by flow cytometry; type: cell-based; design: key to Dunnett's Multiple Comparison Summary: NS means not significant; *, **, ***, **** reflects qualitative measure of the strength of association the Ubv has with 53BP1 compared to the similar association of i53 with 53BP1.; *, **, ***, **** reflects qualitative measure of the strength of association the Ubv has with 53BP1 compared to the similar association of i53 with 53BP1.; *, **, ***, **** reflects qualitative measure of the strength of association the Ubv has with 53BP1 compared to the similar association of i53 with 53BP1.; *, **, ***, **** reflects qualitative measure of the strength of association the Ubv has with 53BP1 compared to the similar association of i53 with 53BP1; conditions: for Dunnett's Multiple Comparison Summary: comparison i53 vs. i53 + amino acid change; for Percent GFP Positive Rep 1: replicate 1, amino acid change in i53 fusion protein plasmid; for Percent GFP Positive Rep 2: replicate 2; for Percent GFP Positive Rep 3: replicate 3
T1 construct: a fragment of 53BP1 (a.a. 1221-1718); expressed in transfected cells; host or cells: E. coli DHM1
T1 sequence (Q12888 1221-1718): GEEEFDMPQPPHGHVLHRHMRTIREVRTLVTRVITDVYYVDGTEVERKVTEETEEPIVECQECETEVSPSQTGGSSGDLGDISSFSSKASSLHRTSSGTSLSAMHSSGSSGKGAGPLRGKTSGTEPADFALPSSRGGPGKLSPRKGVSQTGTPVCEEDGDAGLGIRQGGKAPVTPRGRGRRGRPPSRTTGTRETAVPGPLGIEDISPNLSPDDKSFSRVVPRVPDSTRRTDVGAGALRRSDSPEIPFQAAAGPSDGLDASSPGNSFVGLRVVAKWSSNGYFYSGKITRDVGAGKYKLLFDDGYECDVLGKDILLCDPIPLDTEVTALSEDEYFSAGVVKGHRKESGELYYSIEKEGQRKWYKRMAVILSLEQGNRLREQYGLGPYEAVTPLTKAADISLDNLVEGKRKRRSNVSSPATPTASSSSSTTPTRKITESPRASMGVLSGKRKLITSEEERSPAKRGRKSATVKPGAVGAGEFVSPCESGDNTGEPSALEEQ
Description: (§1) In order to identify mutations that improve the affinity of i53 for 53BP1, the bacterial adenylate cyclase two-hybrid system (BACTH system) was used to screen for interaction between the two proteins. This method makes use of a B. pertussis calmodulin-dependent adenylate cyclase toxin. The catalytic domain of the toxin can be separated into two fragments (T18 and T25) that are able to associate in the presence of calmodulin but have minimal activity in its absence. If bait and prey proteins fused to T18 and T25 interact, then the catalytic activity is restored and cAMP is produced. In E. coli, cAMP binds to catabolite activator protein (CAP) that acts as a transcriptional activator for several genes. By expressing these fusion proteins in an E. coli strain that lacks endogenous adenylate cyclase and naturally lacks calmodulin, cAMP regulated protein expression can be used as a readout of bait-prey interaction. We engineered the screen so that eGFP will be expressed under the control of a cAMP-regulated promoter. The coding sequence for a fragment of 53BP1 (a.a. 1221-1718) containing the i53 interacting regions and i53 were cloned into T18 and T25 adenylate cyclase expression plasmids such that fusion proteins of each would be expressed. If a Ubv interacts with 53BP1, the T18 and T25 fragments will be brought together, adenylate cyclase activity will be restored, cAMP will be produced, and some portion of the bacterial population will be GFP positive.
(§2) There was a high degree of correlation between the two experiments and between replicates (FIG. 2). From these screens, about 230 amino acid changes were identified for which the average enrichment was positive for at least one of the experiments (Table 1). […] To validate that the amino acid changes identified from the pooled screen are reproducible on an individual basis, 24 amino acid changes identified from this screen were introduced individually into the i53 fusion protein plasmid and tested by flow cytometry for their effect on the percent positive population relative to i53 (FIG. 3). There was a strong correlation between the enrichment measured from the pooled screen and the percent reporter positive cells when mutations were screened individually.

[2] = molecular target: T1, fragment of 53BP1 (a.a. 1221-1718); assay: BACTH two-hybrid pooled screen in E. coli, FACS sorting of GFP positive cells and NGS enrichment of i53 amino acid changes; type: cell-based; conditions: i53 (SEQ ID NO: 2) background; for Rep 1 Enrichment / Rep 2 Enrichment: log2 enrichment of amino acid change in GFP positive vs input, normalised to synonymous changes; for Average Enrichment / Experiment 1 - high selection pressure Average Enrichment / Experiment 2-low selection pressure Average Enrichment: average of Rep 1 and Rep 2; for Average Enrichment: log2 enrichment; for Experiment 1 - high selection pressure Average Enrichment / Experiment 2-low selection pressure Average Enrichment: log 2 enrichment; for Experiment 1 - high selection pressure Rep 1 Enrichment / Experiment 2-low selection pressure Rep 1 Enrichment: replicate 1; for Experiment 1 - high selection pressure Rep 1 Enrichment / Experiment 1 - high selection pressure Rep 2 Enrichment / Experiment 2-low selection pressure Rep 1 Enrichment / Experiment 2-low selection pressure Rep 2 Enrichment: enrichment = log 2 of positive/input read count ratio normalised to synonymous changes; for Experiment 1 - high selection pressure Rep 2 Enrichment / Experiment 2-low selection pressure Rep 2 Enrichment: replicate 2
Description: as §1
A plasmid library was made consisting of Ubv-adenylate cyclase fragment fusion protein plasmids that had on average a single codon within the i53 coding region exchanged for a random NNK codon. Plasmids were transformed into DHM1 cells that lack endogenous adenylate cyclase and contain the plasmid for expression of the 53BP1 fragment fused to one of the adenylate cyclase fragments. Expression of eGFP was used as a readout of bait-prey interaction using fluorescence activated cell sorting (FACS) to sort for GFP positive bacteria. Plasmid DNA was isolated from both the sorted GFP positive bacteria (Positive) and from the original pre-sort population (Input) and was sequenced using NGS. Counts were merged for mutations that result in the same amino acid change using Enrich2 [25]. Enrichment was calculated as enrichment=log 2((read count for an amino acid change in the positive population/read count for an amino acid change in the input)/(synonymous change read count in the positive population/synonymous change read count in the input)). […] For each experiment, DHM1 cells were transformed with the Ubv fusion protein plasmid library in two separate replicates using a gene pulser (Bio-Rad). The i53-adenylate cyclase fragment fusion protein (published i53 peptide, SEQ ID NO:2) plasmid was also introduced separately as a control to estimate selection pressure. Cells were then grown and sorted using FACS and GFP positive cells were collected. Two separate experiments were conducted on separate days using different levels of selection pressure resulting in a different percent GFP positive for the i53 population (i.e. for cells that express published i53 peptide (SEQ ID NO:2) fused to one of the adenylate cyclase fragments).
as §2

[3] = molecular target: 53BP1 (amino acids 1484-1603) fused to MBP (Homo sapiens, UniProt Q12888); assay: Biolayer interferometry (BLI) of purified His-tagged Ubvs, 1:1 binding model global fit; conditions: 1:1 binding model, global fit over all 53BP1 concentrations
Sequence of 53BP1 (amino acids 1484-1603) fused to MBP (Q12888 1484-1603, looked up): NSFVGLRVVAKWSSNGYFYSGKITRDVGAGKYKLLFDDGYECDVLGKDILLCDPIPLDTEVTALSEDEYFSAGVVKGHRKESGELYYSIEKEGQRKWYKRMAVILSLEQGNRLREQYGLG
Method: In order to assess the effect of mutations identified from the two-hybrid screen on the affinity of the Ubvs for 53BP1, Ubvs consisting of the i53 sequence with an N-terminal His tag and short flexible linker plus individual or combinations of screen-identified mutations were purified from E. coli (Table 3). Biolayer interferometry was used to measure the affinity of the purified proteins. Briefly, a purified Ubv was diluted in reaction buffer (1×PBS pH7.4, 0.1 mg/mL BSA, 0.001% Tween 20) to 2 ug/mL. Purified 53BP1 (amino acids 1484-1603) fused to MBP was diluted in reaction buffer to between 20 μM and 10 nM (Table 3, Table 4)). For each Ubv, 8 Ni-NTA sensor tips were hydrated and then loaded with the 2 ug/ml of a Ubv for 30 seconds. Sensor tips were then incubated in reaction buffer for 45 seconds to obtain a baseline. Tips were then moved into either empty buffer or seven different concentrations of purified 53BP1 and the association was measured. Tips were then moved back into reaction buffer and the dissociation was measured. Kon, Koff, and Kd were calculated using a 1:1 binding model using a global fit (Table 4).
A second experiment was performed using CM1 and CM7 using a longer association time (360 seconds) to allow binding to closer approach equilibrium. The BLI response vs 53BP1 fragment concentration was plotted in prism to calculate the Kd using a one site-specific binding nonlinear fit model. An i53 response was plotted on the same graph however the association time used (90 seconds) was shorter due to needing a shorter time to reach equilibrium because of the fast off rate of i53 (FIG. 5B, FIG. 5C, Table 4).

[4] = Experiment 1 - high selection pressure
[5] = Experiment 2 - low selection pressure

Substance | Dunnett's Multiple Comparison Summary [1] | Percent GFP Positive Rep 1 [1] | Percent GFP Positive Rep 2 [1] | Percent GFP Positive Rep 3 [1] | Rep 1 Enrichment [2, 4] | Rep 2 Enrichment [2, 4] | Average Enrichment [2, 4] | Rep 1 Enrichment [2, 5] | Rep 2 Enrichment [2, 5] | Average Enrichment [2, 5] | Experiment 1 - high selection pressure Average Enrichment [2] | Experiment 1 - high selection pressure Rep 1 Enrichment [2] | Experiment 1 - high selection pressure Rep 2 Enrichment [2] | Experiment 2-low selection pressure Average Enrichment [2] | Experiment 2-low selection pressure Rep 1 Enrichment [2] | Experiment 2-low selection pressure Rep 2 Enrichment [2] | KD (M) [3]
K48T: i53 with amino acid change K48T | ns | 16.9% | 14% | 14.5% | 1.20 | 1.08 | 1.14 | 0.84 | 0.66 | 0.75 | – | – | – | – | – | – | –
L73M: i53 with amino acid change L73M | **** | 36.2% | 29.2% | 39.5% | – | – | – | – | – | – | 2.61 | 2.69 | 2.52 | 1.43 | 1.58 | 1.28 | –
V26I: i53 with amino acid change V26I | ns | 20.9% | 14.2% | 12.3% | 0.99 | 1.25 | 1.12 | 0.96 | 0.70 | 0.83 | – | – | – | – | – | – | –
i53 K6R: i53 with K6R | ** | 19.8% | 27% | 24% | 1.84 | 1.91 | 1.87 | 1.22 | 0.80 | 1.01 | – | – | – | – | – | – | –
i53 DM: 53BP1 binding deficient i53 variant with P69L, L70V [reference compound] | – | – | – | – | – | – | – | – | – | – | – | – | – | – | – | – | Response was too low to get a good fit to the data
K29M: i53 with amino acid change K29M | ns | 23.9% | 16.5% | 17.8% | 1.72 | 1.48 | 1.60 | 1.23 | 0.57 | 0.90 | – | – | – | – | – | – | –
I61L: i53 with amino acid change I61L | ns | 15.9% | 17.6% | 17.2% | 1.10 | 1.02 | 1.06 | 0.75 | 0.59 | 0.67 | – | – | – | – | – | – | –
A44T: i53 with amino acid change A44T | ns | 17.5% | 7.7% | 12.8% | 1.70 | 0.87 | 1.28 | 0.75 | 0.59 | 0.67 | – | – | – | – | – | – | –
L67K: i53 with amino acid change L67K | ns | 24.2% | 11.2% | 21.5% | 2.08 | 1.93 | 2.01 | 1.40 | 0.39 | 0.89 | – | – | – | – | – | – | –
S49L: i53 with amino acid change S49L | ns | 18.8% | 13.6% | 17.7% | 0.85 | 1.15 | 1.00 | 0.97 | 0.80 | 0.88 | – | – | – | – | – | – | –
H68M: i53 with amino acid change H68M | *** | 28.6% | 23.5% | 28.3% | – | – | – | – | – | – | 2.28 | 2.53 | 2.04 | 1.28 | 0.99 | 1.58 | –
